Numbering of substitutions follows the chain as printed.
Tests used:
[1] = tested on: Mth10b I39R (Methanobacterium thermoautotrophicum ΔH); test: SPR; conditions: SPR (BIAcore 3000, SA chip): 20 mM Tris, 1 mM EDTA, 0.005% Tween20, pH 7.5, with 0, 0.1 or 0.3 M NaCl, 25°C
[2] = tested on: Mth10b N11K (Methanobacterium thermoautotrophicum ΔH); test: SPR; conditions: SPR (BIAcore 3000, SA chip): 20 mM Tris, 1 mM EDTA, 0.005% Tween20, pH 7.5, with 0, 0.1 or 0.3 M NaCl, 25°C
[3] = tested on: Mth10b N11KI39RT77R (Methanobacterium thermoautotrophicum ΔH); test: SPR; conditions: SPR (BIAcore 3000, SA chip): 20 mM Tris, 1 mM EDTA, 0.005% Tween20, pH 7.5, with 0, 0.1 or 0.3 M NaCl, 25°C
[4] = tested on: Mth10b T77R (Methanobacterium thermoautotrophicum ΔH); test: SPR; conditions: no NaCl; apparent KD; SPR (BIAcore 3000, SA chip): 20 mM Tris, 1 mM EDTA, 0.005% Tween20, pH 7.5, with 0, 0.1 or 0.3 M NaCl, 25°C
[5] = target: T1, Mth10b N11KI39RT77R N11K;I39R;T77R (Methanobacterium thermoautotrophicum ΔH) (UniProt O27527); test: SPR; conditions: SPR (BIAcore 3000, SA chip): 20 mM Tris, 1 mM EDTA, 0.005% Tween20, pH 7.5, with 0, 0.1 or 0.3 M NaCl, 25°C
T1 sequence: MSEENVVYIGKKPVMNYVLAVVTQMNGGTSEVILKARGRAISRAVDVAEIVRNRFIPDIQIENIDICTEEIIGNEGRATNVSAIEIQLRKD

[6] = target: T2, Mth10b T77R T77R (Methanobacterium thermoautotrophicum ΔH) (UniProt O27527); test: SPR; conditions: SPR (BIAcore 3000, SA chip): 20 mM Tris, 1 mM EDTA, 0.005% Tween20, pH 7.5, with 0, 0.1 or 0.3 M NaCl, 25°C
T2 sequence: T1 sequence with K11N, R39I

[7] = target: T3, Mth10b wild type (Methanobacterium thermoautotrophicum ΔH) (UniProt O27527); test: SPR; conditions: SPR (BIAcore 3000, SA chip): 20 mM Tris, 1 mM EDTA, 0.005% Tween20, pH 7.5, with 0, 0.1 or 0.3 M NaCl, 25°C
T3 sequence: T1 sequence with K11N, R39I, R77T

[8] = target: the molecule itself; test: crystal structure; purified Mth10b at ~10 mg/ml in 10 mM HEPES pH 7.2, 150 mM NaCl; hanging drop at 4°C over 0.1 M NaCl, 1.6 M (NH4)2SO4, 0.1 M HEPES pH 7.5; 2.2 Å; dimer formed about a crystallographic two-fold axis
[9] = 0.1 M NaCl, slight cooperativity

In the case of 110 bp mth10b fragment, the Kd [1, 9] is reported as 6.5 µM, the Kd ([1]; no NaCl, apparent KD) is reported as 0.26 µM and the Kd ([2]; 0.1 M NaCl, marked cooperativity) is reported as 30 µM. For the same molecule, the Kd ([2]; no NaCl, apparent KD) was 2.1 µM, the Kd [3, 9] was 0.7 µM and the fold decrease in affinity (fold lower affinity than in 0.1 M NaCl) ([3]; 0.3 M NaCl, high cooperativity) was 70. The Kd [4] was 16 µM.

With “GTGATGTCAGAGGAGAATGTAGTATACATCGGAAACAAGCCTGTAATGAACTATGTTCTGGCCGTGGTTACTCAGATGAACGGTGGGACCAGTGAAGTGATCCTTAAAGC (double strand) [110 bp mth10b fragment]” the Kd [5] was 0.7 µM, the Kd [6] was 16 µM and the binding [7] was “no binding”.

B1: Mth10b from Methanobacterium thermoautotrophicum ΔH (natural protein, UniProt O27527 1-91, looked up)
chain: T1 sequence with K11N, R39I, R77T
notes: Mth10b, atypical Sac10b (Alba) family member of Methanobacterium thermoautotrophicum ΔH, gene mth10b (MTH1483); 91 residues in total, C-terminal residue Asp91; expressed from pET11a-mth10b; the structure model covers 86 of the 91 residues; also called wild type Mth10b; source: E. coli BL21 (DE3), purified
B1 was tested, and the “stoichiometry N” value [8] was 2.
